# Values quoted from earlier work, collected in PMC5408189.
# pKd: −log10 of the molar value.
# Target: integrin α5β1 (Homo sapiens) (UniProt P08648)
# Test: surface plasmon resonance
# UniProt P08648, sequence (P08648 42-1049, chain 1 of 2): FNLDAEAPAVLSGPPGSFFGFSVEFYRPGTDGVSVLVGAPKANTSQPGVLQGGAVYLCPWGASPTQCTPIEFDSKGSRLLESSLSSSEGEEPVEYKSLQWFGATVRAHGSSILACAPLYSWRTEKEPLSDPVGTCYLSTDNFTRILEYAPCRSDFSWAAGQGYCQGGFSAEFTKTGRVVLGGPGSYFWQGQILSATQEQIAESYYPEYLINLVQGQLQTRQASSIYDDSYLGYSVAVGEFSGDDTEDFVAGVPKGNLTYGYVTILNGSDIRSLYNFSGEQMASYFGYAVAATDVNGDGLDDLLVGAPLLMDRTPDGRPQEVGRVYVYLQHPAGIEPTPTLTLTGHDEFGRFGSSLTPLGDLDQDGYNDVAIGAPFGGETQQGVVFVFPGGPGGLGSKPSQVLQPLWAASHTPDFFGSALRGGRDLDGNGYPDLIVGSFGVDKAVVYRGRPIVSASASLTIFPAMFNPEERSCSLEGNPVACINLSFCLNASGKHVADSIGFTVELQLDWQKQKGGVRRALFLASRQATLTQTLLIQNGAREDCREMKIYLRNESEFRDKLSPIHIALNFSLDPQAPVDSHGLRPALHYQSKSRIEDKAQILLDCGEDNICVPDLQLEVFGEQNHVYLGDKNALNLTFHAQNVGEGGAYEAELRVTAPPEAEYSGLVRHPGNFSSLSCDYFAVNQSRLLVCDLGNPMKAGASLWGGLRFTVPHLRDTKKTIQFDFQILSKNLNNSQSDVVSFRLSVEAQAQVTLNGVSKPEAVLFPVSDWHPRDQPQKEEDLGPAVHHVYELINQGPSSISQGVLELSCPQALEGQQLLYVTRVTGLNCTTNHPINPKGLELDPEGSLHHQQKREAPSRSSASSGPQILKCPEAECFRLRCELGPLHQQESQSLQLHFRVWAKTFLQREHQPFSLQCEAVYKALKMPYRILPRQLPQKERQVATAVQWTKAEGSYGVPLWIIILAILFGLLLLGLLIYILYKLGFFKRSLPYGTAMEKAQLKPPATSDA
# UniProt P08648, sequence (P05556 21-798, chain 2 of 2, further chain): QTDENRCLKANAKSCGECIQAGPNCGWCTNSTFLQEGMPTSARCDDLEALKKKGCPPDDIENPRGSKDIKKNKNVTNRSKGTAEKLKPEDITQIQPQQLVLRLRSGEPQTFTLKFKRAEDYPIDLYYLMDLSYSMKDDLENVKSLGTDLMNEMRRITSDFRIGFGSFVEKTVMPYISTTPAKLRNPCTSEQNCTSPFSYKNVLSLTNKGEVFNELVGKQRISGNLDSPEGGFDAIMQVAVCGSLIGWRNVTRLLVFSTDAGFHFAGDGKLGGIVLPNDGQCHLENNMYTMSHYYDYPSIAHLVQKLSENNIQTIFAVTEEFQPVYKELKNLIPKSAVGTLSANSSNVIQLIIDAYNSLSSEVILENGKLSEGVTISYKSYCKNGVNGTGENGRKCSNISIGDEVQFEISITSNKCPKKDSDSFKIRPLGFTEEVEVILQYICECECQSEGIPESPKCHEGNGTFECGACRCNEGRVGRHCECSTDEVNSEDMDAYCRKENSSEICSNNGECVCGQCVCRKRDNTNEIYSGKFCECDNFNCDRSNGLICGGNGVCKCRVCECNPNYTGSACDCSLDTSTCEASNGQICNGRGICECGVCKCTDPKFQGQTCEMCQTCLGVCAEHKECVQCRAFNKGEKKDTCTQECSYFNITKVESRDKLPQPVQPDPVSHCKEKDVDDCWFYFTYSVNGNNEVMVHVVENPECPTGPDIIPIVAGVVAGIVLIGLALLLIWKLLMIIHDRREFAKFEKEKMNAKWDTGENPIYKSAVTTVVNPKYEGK
substance,measurement,value
CagA (from UniProt P55980),pKd,9.82
